Three substances from article PMC8002179 can be followed below.

Test [1] concerns the target wild type ACKR3 fused with Renilla luciferase (RLuc) on the C-terminal tail (human) (UniProt P25106).
Test [2] concerns the target β-arrestin1 tagged with the eYFP fluorescent protein (UniProt P49407). Kind of test: BRET. As to conditions: CXCL12 (100 nM), HEK293T cells, read at last time point (~56 min), read off a plot.
Test [3] deals with β-arrestin2 tagged with the mVenus fluorescent protein (UniProt P32121). Nature of the test: BRET. As to conditions: CXCL12 (100 nM), HEK293T cells, read off a plot.

Sequence of UniProt P25106 (P25106 whole entry, the tested form may be a part): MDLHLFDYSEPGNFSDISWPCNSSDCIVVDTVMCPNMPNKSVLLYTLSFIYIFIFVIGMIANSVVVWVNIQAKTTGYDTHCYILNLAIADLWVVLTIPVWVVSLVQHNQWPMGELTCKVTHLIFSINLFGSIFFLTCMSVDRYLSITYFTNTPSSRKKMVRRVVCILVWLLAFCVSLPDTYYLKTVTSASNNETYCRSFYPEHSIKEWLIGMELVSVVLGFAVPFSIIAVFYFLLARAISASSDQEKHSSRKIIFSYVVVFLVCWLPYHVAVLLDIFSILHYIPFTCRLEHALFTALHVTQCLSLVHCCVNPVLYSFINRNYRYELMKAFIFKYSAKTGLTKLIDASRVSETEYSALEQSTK
Sequence of CXCL12 (P48061 22-93): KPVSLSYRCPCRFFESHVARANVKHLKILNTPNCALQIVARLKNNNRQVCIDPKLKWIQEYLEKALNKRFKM

Take “CXCL12 (from UniProt P48061 22-93) (ligand)”: in test [1], the pEC50 of CXCL12 for ACKR3-RLuc translocation to Rab5a-mVenus (early endosome sensor, BRET, HEK293T) amounted to 9.1 pEC50; the pEC50 of CXCL12 for ACKR3-RLuc translocation to Rab11-mVenus (recycling endosome sensor, BRET, HEK293T) was determined as 9.1 pEC50; the pEC50 of CXCL12 for GRK2-mVenus recruitment to ACKR3-RLuc (BRET, HEK293T) was found to be 8.2 pEC50; the pEC50 of CXCL12 for GRK3-mVenus recruitment to ACKR3-RLuc (BRET, HEK293T) worked out at 8.1 pEC50. In test [1], this substance showed a pEC50 of CXCL12 for GRK5-mVenus recruitment to ACKR3-RLuc (BRET, HEK293T) of 8.3 pEC50; a pEC50 of CXCL12 for loss of ACKR3-RLuc co-localization with K-Ras-mVenus (cell membrane sensor, BRET, HEK293T) of 8.9 pEC50; a pEC50 of CXCL12 for β-arrestin1-eYFP recruitment to ACKR3-RLuc (BRET, HEK293T) of 8.1 pEC50; a pEC50 of CXCL12 for β-arrestin2-mVenus recruitment to ACKR3-RLuc (BRET, HEK293T) of 8.2 pEC50.
As for “wild type ACKR3 fused with Renilla luciferase (RLuc) on the C-terminal tail (from UniProt P25106) ST/A 350.355”, the response in test [2] (parent: est. 1.09) turned out to be 1.01 fold vehicle; in test [3] (read at last time point (~56 min), parent: est. 1.17), 1.14 fold vehicle.
Regarding “wild type ACKR3 fused with Renilla luciferase (RLuc) on the C-terminal tail (from UniProt P25106) full ST/A”, the response in test [2] (parent: est. 1.11) was found to be 1 fold vehicle; in test [3] (read at last time point (~33 min), parent: est. 1.13) it was 1.02 fold vehicle.
